{
  "source": "the DeepSol protein solubility set",
  "data": [
    {"test": "soluble on expression in E. coli; label from the status in PepcDB or PDB records", "values": [
      {"sequence": "SSTAGDGERGTVGQEDSAAARPFRFSPEPTLEDIRRLHAEFAAERDWEQFHQPRNLLLALVGEVGELAELFQWKSDTEPGPQAWPPKERAALQEELSDVLIYLVALAARCHVDLPQAVISKMDTNRQRYPVHLSRGSACKYTDLPRGTISENQAVGAGDPASELRDQAST", "soluble on expression in E. coli": "soluble"},
      {"sequence": "SSTWLSEAEMIALAGLLQMSQGEQTPNCVASSLPSTSCPDPVSVSEDPGPSGDQSCSGTDT", "soluble on expression in E. coli": "soluble"},
      {"sequence": "STEKEKMIAGELYRSADETLSRDRLRARQLIHRYNHSLAEEHTLRQQILADLFGQVTEAYIEPTFRCDYGYNIFLGNNFFANFDCVMLDVCPIRIGDNCMLAPGVHIYTATHPIDPVARNSGAELGKPVTIGNNVWIGGRAVINPGVTIGDNVVVASGAVVTKDVPDNVVVGGNPARIIKKL", "soluble on expression in E. coli": "soluble"},
      {"sequence": "STLQPRCEDVETAEGVALTVTGVAQVKIMTEKELLAVACEQFLGKNVQDIKNVVLQTLEGHLRSILGTLTVEQIYQDRDQFAKLVREVAAPDVGRMGIEILSFTIKDVYDKVDYLSSLGKTQTAVVQRDADIGVAEAERDAGIREAECKKEMLDVKFMADTKIADSKRAFELQKSAFSEEVNIKTAEAQLAYELQGAREQQKIRQEEIEIEVVQRKKQIAVEAQEILRTDKELIATVRRPAEAEAHRIQQIAEGEKVKQVLLAQAEAEKIRKIGEAEAAVIEAMGKAEAERMKLKAEAYQKYGDAAKMALVLEALPQIAAKIAAPLTKVDEIVVLSGDNSKVTSEVNRLLAELPASVHALTGVDLSKIPLIKKATGVQV", "soluble on expression in E. coli": "not soluble"},
      {"sequence": "STPETLPGHTKAKQPYREDTEWLKGQQIGLGAFSSCYQAQDVGTGTLMAVKQVTYVRNTSSEQEEVVEALREEIRMMSHLNHPNIIRMLGATCEKSNYNLFIEWMAGGSVAHLLSKYGAFKESVVINYTEQLLRGLSYLHENQIIHRDVKGANLLIDSTGQRLRIADFGAAARLASKGTGAGEFQGQLLGTIAFMAPEVLRGQQYGRSCDVWSVGCAIIEMACAKPPWNAEKHSNHLALIFKIASATTAPSIPSHLSPGLRDVALRCLELQPQDRPPSRELLKHPVFRTTW", "soluble on expression in E. coli": "soluble"},
      {"sequence": "STQESTQCHRSYLLPSGNSVTLSESTAIVSHGTTGLVTWDAALYLAEWAIENPAAFTDRTILELGSGAGLTGLAICKACCPRAYIFSDCHAQVLEQLRGNVLLNGFSLEPHTPIDAGSSKVTVAQLDWDEVTASQLSAFQADVVIAADVLYCWEMTLSLVRVLKMLEDCQRKSAPDVYVAYTIRSQDTGKLFIEELDRAGIYWEEVPPHTGKLFPYEEHSAIVILKLVLTSRHGV", "soluble on expression in E. coli": "soluble"},
      {"sequence": "SVADANGSSSSSFNFLIYGKTGWIGGLLGKLCEAQGITYTYGSGRLQDRQSIVADIESVKPSHVFNAAGVTGRPNVDWCESHKVETIRTNVAGTLTLADICREKGLVLINYATGCIFEYDSGHPLGSGIGFKEEDTPNFTGSFYSKTKAMVEELLKNYENVCTLRVRMPISSDLTNPRNFITKIARYEKVVDIPNSMTILDELLPISIEMAKRNLTGIYNFTNPGVVSHNEILEMYRDYIDPSFTWKNFTLEEQAKVIVAPRSNNELDATKLKTEFPELMSIKESLIKFVFEPNKKTEVKA", "soluble on expression in E. coli": "soluble"},
      {"sequence": "SVICCAAVNCSNRQGKGEKRAVSFHRFPLKDSKRLIQWLKAVQRDNWTPTKYSFLCSEHFTKDSFSKRLEDQHRLLKPTAVPSIFHLTEKKRGAGGHGRTRRKDASKATGGVRGHSSAATGRGAAGWSPSSSGNPMAKPESRRLKQAALQGEATPRAAQEAASQEQAQQALERTPGDGLATMVAGSQGKAEASATDAGDESATSSIEGGVTDKSGISMDDFTPPGSGACKFIGSLHSYSFSSKHTRERPSVPREPIDRKRLKKDVEPSCSGSSLGPDKGLAQSPPSSSLTATPQKPSQSPSAPPADVTPKPATEAVQSEHSDASPMSINEVILSASGACKLIDSLHSYCFSSRQNKSQVCCLREQVEKKNGELKSLRQRVSRSDSQVRKLQEKLDELRRVSVPYPSSLLSPSREPPKMNPVVEPLSWMLGTWLSDPPGAGTYPTLQPFQYLEEVHISHVGQPMLNFSFNSFHPDTRKPMHRECGFIRLKPDTNKVAFVSAQNTGVVEVEEGEVNGQELCIASHSIARISFAKEPHVEQITRKFRLNSEGKLEQTVSMATTTQPMTQHLHVTYKKVTP", "soluble on expression in E. coli": "soluble"},
      {"sequence": "SVKETENLLQTGISEVRGTLKISAPRDIGKQIISPMVSAFSEQYPDVTPYLYLNDNLSNLAESGLDLVIRYGELADSNLISRRLASSQRVLCASPDYLSKQGVPNCPQDLAAHRCLAMVRSNEELKTWHFKDEESHQSITVTPKRFSDDGEVIRQWALDGAGIALKSILDIQQDLKQQRLVTVLDGYMKNFSAFSQGAEADLHVIYQSRQYQPKRVRLFLDFLVEQFSALSDTSNQI", "soluble on expression in E. coli": "not soluble"},
      {"sequence": "SVLPETPVPFKSGTGAIDNDTVYIGLGSAGTAWYKLDTQAKDKKWTALAAFPGGPRDQATSAFIDGNLYVFGGIGKNSEGLTQVFNDVHKYNPKTNSWVKLMSHAPMGMAGHVTFVHNGKAYVTGGVNQNIFNGYFEDLNEAGKDSTAIDKINAHYFDKKAEDYFFNKFLLSFDPSTQQWSYAGESPWYGTAGAAVVNKGDKTWLINGEAKPGLRTDAVFELDFTGNNLKWNKLAPVSSPDGVAGGFAGISNDSLIFAGGAGFKGSRENYQNGKNYAHEGLKKSYSTDIHLWHNGKWDKSGELSQGRAYGVSLPWNNSLLIIGGETAGGKAVTDSVLITVKDNKVTVQNLEHHHHHH", "soluble on expression in E. coli": "soluble"},
      {"sequence": "SYFSIFSPSFTSLRHDGKPVQCSGLDMQFDPSEPGFYDDPDLSYSIEKPITKWDEKRNQWFESHPSFKPGSENRIVMVTGSQSSPCKNPIGDHLLLRCFKNKVDYARIHGHDIFYSNSLLHPKMNSYWAKLPVVKAAMLAHPEAEWIWWVDSDAIFTDMEFKPPLHRYRQHNLVVHGWPNIIYEKQSWTALNAGVFLIRNCQWSMDLIDTWKSMGPVSPDYKKWGPIQRSIFKDKLFPESDDQTALIYLLYKHKELYYPKIYLEAEYYLQGYWIGVFGDFANVTERYLEMEREDDTLRRRHAEKVSERYGAFREERFLKGEFGGRGSRRRAFITHFTGCQPCSGDHNPSYDGDTCWNEMTRALNFADNQVMRVYGYVHSDLSKTSPLQPLPFDYPNEAW", "soluble on expression in E. coli": "soluble"},
      {"sequence": "SYRSRSAFKLLEVNERHQILRPGLRVLDCGAAPGAWSQVAVQKVNAAGTDPSSPVGFVLGVDLLHIFPLEGATFLCPADVTDPRTSQRILEVLPGRRADVILSDMAPNATGFRDLDHDRLISLCLTLLSVTPDILQPGGTFLCKTWAGSQSRRLQRRLTEEFQNVRIIKPEASRKESSEVYFLATQYHGRKGTVKQ", "soluble on expression in E. coli": "soluble"},
      {"sequence": "TALADVVITGYQTLSKERATGSFDKVDSSVLSSRPTADLSTALQGLVAGMQATEKEDGSIDFLIRGSSSLYADKKPLLVVDGFPIQGDFSSINPNDVESVTVLKDAAAASIWGARSANGVIVVTTKKGKKDK", "soluble on expression in E. coli": "not soluble"},
      {"sequence": "TAMRALIESLPTITEGEGRFVPYNDDEGGEEENVCTTEHVEMAKAKNWKVLTSWGEPFPGITALISIEGESEYSVYAQDGILYLSGMEQGLPVQ", "soluble on expression in E. coli": "not soluble"},
      {"sequence": "TDPDADRLGVEIRQPDGSYLNLSGNQIGAIIAKYILEAHKTAGTLPANAALCKSIVSTELVTKIAESYGATMFNVLTGFKFIGEKIHEFETQHNYTYMFGFEESFGYLIKPFVRDKDAIQAVLIVAEIAAYYRSRGMTLADGIEEIYKQYGYFSE", "soluble on expression in E. coli": "not soluble"},
      {"sequence": "TEELEKAYDSLKESEEHLRLTLEGSKAGMWMWDLRANWKITPQMNALLGRSESSPIKYEEFISMIHPEDQERVAQAWNKAIECKDFYDQEYRIFLPDGSIHWLSSKGSVIELHSGIRQLMGITTDIT", "soluble on expression in E. coli": "not soluble"},
      {"sequence": "TKAHRDAARRIAAESFVLLKNDNVTLRPGTPAEPLLPFNPKGNIAVIGPLADSRTNMPGTWSVAAVLDRCPSLVEGLKEMTAGKANILYAKGSNLISDASYEERATMFGRSLNRDNRTDEQLLNEALTVANQSDIIIAALGESSEMSGESSSRTDLNIPDVQQNLLKELLKTGKPVVLVLFTGRPLTLTWEQEHVPAILNVWFGGSEAAYAIGDALFGYVNPGGKLTMSFPKNVGQIPLYYAHKNTGRPLAQGKWFEKFRSNYLDVDNEPLYPFGYGLSYTTFSYGDIDLSR", "soluble on expression in E. coli": "not soluble"},
      {"sequence": "TKDFSWNTTFNISHNKNEIVTLDGMQTEIISGTQIRKVGKSYRTFYMIEFAGINPETGAPQFYTNDLDENGNYIKEITEKYSEANAIVLDKHAEPNVIGGLSNTLRYKWFDLNFMFSYQFGGYSYDNWAQKTEHGGNDLEANIPTYYRDSWKQPGDITKYELFIESPDVAMNKSTTTRRLHSSDFIRLKTLTFGITLPQVWTQKIGVNNVRVYASANNLWTWAAYDYYDPEAVSGGSAIWGTPPLKTVTFGLSVNF", "soluble on expression in E. coli": "not soluble"},
      {"sequence": "TMIAIKPTKLKDFSSLMQLDVQEEQIGFAKPFEQAYQKRNKSEVFFTIYSDYLTVGYLIIDKGFAQHAPFAMRHELGLNYLMIDRRFQRQGIGAEALKKLFVYAYTIDPESTSLCVTVPNSHQGALDFFLACGFTNTEKAIYGEQEKEWLMRHPL", "soluble on expression in E. coli": "not soluble"},
      {"sequence": "TNRVADLTIYIIRQGVLDRRYLGEIERLYTENKFTNMCLVLNDVSYSGSRGTYGYGYGYGYGNKEYGKQGKKLRRRSAKKTKKFKIGPMKKS", "soluble on expression in E. coli": "not soluble"},
      {"sequence": "TPAAPISTVADGDWPAYGRNQEGQRFSPLKQINADNVKNLKEAWVFRTGDLKQPNDPGEITNEVTPIKVGDTLFLCTAHQRLFALDAATGKEKWHFDPQLNADPSFQHVTCRGVSYHEAKADNAPADVVADCPRRIILPVNDGRLFAVNADNGKLCETFANKGILNLQTNMPVTTPGMYEPTSPPIITDKTIVIAGAVTDNFSTREPSGVIRGFDVNTGKLLWAFDPGAKDPNAIPSDEHHFTLNSPNSWAPAAYDAKLDLVYLPMGVTTPDIWGGNRTPEQERYASSIVALNATTGKLAWSYQTVHHDLWDMDMPSQPTLADIEVNGKTVPVIYAPAKTGNIFVLDRRNGELVVPAPEKPVPQGAAKGDYVTKTQPFSDLSFRPKKDLTGADMWGATMFDQLVCRVIFHQLRYEGIFTPPSEQGTLVFPGNLGMFEWGGISVDPNRQVAIANPMALPFVSKLIPRGPGNPMEPPKDAKGSGTESGVQPQYGVPYGVTLNPFLSPFGLPCKQPAWGYISALDLKTNEVVWKKRIGTPQDSLPFPMPVKLPFTMGMPMLGGPISTAGNVLFIGATADNYLRAYNMSNGEKLWEARLPAGGQATPMTYEVNGKQYVVISAGGHGSFGTKMGDYIVAYALPDDAK", "soluble on expression in E. coli": "not soluble"},
      {"sequence": "TPDIQMTQSPSSLSASVGDRVTITVQASQDIIKHLNWYQQTPGKAPKLLIYEASNLQAGVPSRFSGSGSGTDYTFTISSLQPEDIATYYCQQYQSLPYTFGQGTKLQIT", "soluble on expression in E. coli": "soluble"},
      {"sequence": "TQETFPPKYLHYDEETSHQLLCDKCPPGTYLKQHCTAKWKTVCAPCPDHYYTDSWHTSDECLYCSPVCKELQYVKQECNRTHNRVCECKEGRYLEIEFCLKHRSCPPGFGVVQAGTPERNTVCKRCPDGFFSNETSSKAPCRKHTNCSVFGLLLTQKGNATHDNICSGNSESTQKCGIDVTLCEEAFFRFAVPTKFTPNWLSVLVDNLPGTKVNAESVERIKRQHSSQEQTFQLLKLWKHQNKDQDIVKKIIQDIDLCENSVQRHIGHANLTFEQLRSLMESLPGKKVGAEDIEKTIKACKPSDQILKLLSLWRIKNGDQDTLKGLMHALKHSKTYHFPKTVTQSLKKTIRFLHSFTMYKLYQKLFLEMIGNQVQSVKISCL", "soluble on expression in E. coli": "not soluble"},
      {"sequence": "TRFVPGGPVERMLSQMQSQGDGAASMTSAGGNTALSDEQIAELNAFYGLDKPVMEAYVDWLSRLVTLDLGESTRYYEPVSDMIAERLP", "soluble on expression in E. coli": "not soluble"}
    ]}
  ]
}
